According to PMC8830681, “Circadian control of heparan sulfate levels times phagocytosis of amyloid beta aggregates” (PLoS Genetics, 2022):
One block for each molecule: values may come before it. Ends that are not written are not given here.

What was measured:
[1] = tested on: bone-marrow derived macrophages (BMDMs) from Per2::Luc C57BL/6J mice; test: Phagocytosis assay of HiLyte 488 labeled amyloid-beta by serum-shock synchronized macrophages (with or without heparinases); assay type: cell-based, mouse; settings: for circadian oscillation of the peptide's own phagocytosis (in words): HiLyte 488 labeled peptide, 2 h uptake, mAβ42 every 4 h for 24 h (ECHO), Aβ40 at PS20 and PS32; for Hedges' g, phagocytosis PS20 vs PS32 within the same treatment: for heparinases: Aβ42 phagocytosis in their presence; for Hedges' g, phagocytosis vs Aβ42-alone at PS20 (nadir, CT8) / Hedges' g, phagocytosis vs Aβ42-alone at PS32 (zenith, CT20): >100 cells per replicate, g >0.2 small, >0.5 medium, >0.8 large effect; for effect of heparinase treatment on the daily oscillation of Aβ42 phagocytosis (in words): heparinase added immediately before HiLyte 488 Aβ42, cells sampled 2 h later
Excerpt: To do so, we modified a previously-employed BMDM phagocytosis assay (as BMDMs are both models for activated microglia and are known to migrate into the brain in late-stage AD), to use fluorescently labeled Aβ42 to determine if the phagocytosis of Aβ42 is controlled by the circadian clock. In brief, BMDMs were derived from bone marrow progenitor cells extracted from Per2::Luc C57BL/6J mice and differentiated with recombinant Macrophage Colony Stimulating Factor (M-CSF), with flow cytometry confirming complete differentiation into naïve peripheral macrophages. […] 16 h after synchronization, confluent dishes of these BMDMs were treated HiLyte 488 labeled Aβ42 (Anaspec), in triplicate, every 4 h over a 24 h circadian period. BMDMs treated with labeled Aβ42 were harvested two hours after Aβ42 treatment and fixed with formalin. Total cellular fluorescence levels were analyzed with fluorescent confocal microscopy and quantified using a custom cell measurement MATLAB script (Fig 1A, S2 Fig, and S1 Table).
Bone marrow was harvested from the femurs and tibias of one 3–6-month-old male mouse using a 26 g needle and syringe filled with DMEM supplemented media. ACK lysing buffer (Lonza 10-548E) was used to lyse red blood cells in order to prevent erythrocyte contamination. Filtered bone marrow cells were counted using a BioRad TC20 automated cell counter and plated on 35 mm cell culture plates at a density of 1 x 10^6 in macrophage differentiation media. After three days of incubation at 37°C with 5% CO2, fresh macrophage differentiation media was added. After another 3 days of incubation, the cells were washed with 2 ml warm PBS per plate, and replaced with macrophage assay media, and the cultures were incubated for 24 h. Macrophage cultures were then washed with 2 ml warm PBS, macrophage serum starvation media was added, and the plates were incubated in the starve media for 24 h. Next, macrophage serum starvation media was removed, and macrophage serum shock media was added, and cultures were incubated for 2 h. Macrophage cultures were then washed with 2 ml warmed PBS each and macrophage media Luciferin was added. Cultures were sealed with grease and glass cover slips and placed in a LumiCycle 32 luminometer (Actimetrics) to confirm synchronization of circadian rhythmicity. Assays began 16 h post serum shock to allow the synchronized cells to return to homeostasis.
All amyloid-beta isoforms were reconstituted 24 h or less before experimentation in water and PBS (1:1) and were dissolved using sonication for approximately 30 min. The reconstituted Aβ was pooled from individual vials before aliquoting for each experimental replicate. The aliquots were then flash frozen and stored at -80°C until 20 min before use.
Using synchronized macrophages (as described above) starting at PS16 macrophages were treated every 4 h for 24 h, in triplicate, with 115 μl (0.25 mg/ml) of fluorescently labeled amyloid-beta (PS16, PS20, PS24, PS28, PS32, PS36, and PS40) and heparinases at the reported activity levels (S5 Table). The treated macrophages were then incubated at 37°C for 2 h. Following the two-hour incubation, the media was aspirated, and the macrophages were washed with 2ml of PBS three times before Cell Stripper (Corning 25-056-CI) was added to the cultures, which were then incubated at 37°C for 3 min. Detached macrophages were next centrifuged at 400 g for 5 min, the supernatant was aspirated, and the macrophage cell pellets were resuspended in formalin and incubated in the dark at room temperature for 30 min. Macrophages were then centrifuged for 5 min at 400 g, the supernatant was aspirated, and the macrophages were resuspended in 250 μL of PBS and kept at 4°C. The fixed macrophages were imaged using fluorescent microscopy within a week of the experiment. All fluorescent images from the phagocytosis experiments are available on Mendeley Data (doi: 10.17632/zrmgjyggmr.1). […]

[2] = Heparinase enzymatic activity; assay type: biochemical
Excerpt: We hypothesized that the rhythmic oscillation of HSPGs may inhibit the phagocytosis of Aβ42 due to the antiphase relationship between Aβ42 phagocytosis and PG levels and the published repressive effect of HSPGs on Aβ42 phagocytosis (Figs 1 and 4). To validate this hypothesis, we individually purified Heparinases I, II, and III, removed endotoxins, and confirmed Heparinase enzymatic activity (see Methods) (S5 Table). Heparinase I cleaves between D-glucosamine and L-iduronic acid in highly sulfated regions, heparinase III cleaves between N-acetyl-D-glucosamine in low or unsulfated regions, and heparinase II cleaves in both positions. We then extracted, derived, synchronized, and exposed BMDMs to fluorescently-labeled Aβ42 every 4 h over one circadian day. We next added a mixture of Heparinase I, II, and III to cleave all forms of HSPGs, with each biological replicate receiving a decreasing concentration of total heparinases (Replicate 1: 0.9577mg/ml of total heparinases, Replicate 2: 0.5071 mg/ml of total heparinases, Replicate 3: 0.2794 mg/ml of total heparinases) of the mixture of the three heparinases (see S5 Table). Immediately following the addition of the heparinases, we added fluorescently labeled Aβ42 and sampled Aβ42 levels inside the cell 2 hours later. By using fluorescently labeled Aβ42, we controlled for endogenously generated Aβ, which can be affected by HSPG expression through its interaction with BACE1 processing of the amyloid precursor protein [67].
Heparinases were prepared as has been previously reported. All heparinases used were purified away from endotoxins using an Endotoxin Removal Kit from GenScript (L00338).

[3] = log10 mean cell fluorescence, triplicate
[4] = heparinase stock of the 'All Hep' experiment
[5] = heparinase stock of the 'Hep I only' / 'Hep III only' experiments

Molecule: Amyloid-beta 40 labeled with HiLyte 488 [Aβ40]
circadian oscillation of the peptide's own phagocytosis (in words) ([1]; triplicate): no oscillation in Aβ40 phagocytosis | Hedges' g, total phagocytosis of Aβ40 vs Aβ42 at PS20 and PS32 [1, 3]: 0.2752 | Hedges' g, phagocytosis PS20 vs PS32 within the same treatment [1, 3]: 0.06734

Molecule: Mouse amyloid-beta 42 labeled with HiLyte 488 (DAEFGHDSGFEVRHQKLVFFAEDVGSNKGAIIGLMVGGVVIA; also: HiLyte 488 label, site not given here; UniProt P12023 672-713, looked up) [mAβ42, custom mouse Aβ42 labeled with HiLyte 488 from Anaspec (SQ-ANCPXXXX)]
Oscillation Type ([1]; ECHO v4.1 fit, average of 3 replicates, log10 mean cell fluorescence, 2 h uptake every 4 h PS16-PS40, WT Per2::Luc BMDMs): Harmonic | circadian oscillation of the peptide's own phagocytosis (in words) ([1]; triplicate): did not have a circadian oscillation | phagocytosis compared to human Aβ42 (in words) ([1]; every 4 h for 24 h, triplicate): increased phagocytosis compared to human Aβ42 phagocytosis at all sampled times | Hedges' g, phagocytosis vs Aβ42-alone at PS20 (nadir, CT8) [1, 3]: 3.032 | Hedges' g, phagocytosis vs Aβ42-alone at PS32 (zenith, CT20) [1, 3]: 2.021

B3: Heparinase I: Recombinant Flavobacterial heparin lyase I; cleaves in highly sulfated regions of HSPGs (protein, UniProt Q05819 22-384, looked up)
Heparin lyase I: QQKKSGNIPYRVNVQADSAKQKAIIDNKWVAVGINKPYALQYDDKLRFNGKPSYRFELKAEDNSLEGYAAGETKGRTELSYSYATTNDFKKFPPSVYQNAQKLKTVYHYGKGICEQGSSRSYTFSVYIPSSFPDNATTIFAQWHGAPSRTLVATPEGEIKTLSIEEFLALYDRMIFKKNIAHDKVEKKDKDGKITYVAGKPNGWKVEQGGYPTLAFGFSKGYFYIKANSDRQWLTDKADRNNANPENSEVMKPYSSEYKTSTIAYKMPFAQFPKDCWITFDVAIDWTKYGKEANTILKPGKLDVMMTYTKNKKPQKAHIVNQQEILIGRNDDDGYYFKFGIYRVGNSTVPVTYNLSGYSETAR
Activities (U/ml) [2, 4]: 0.034 U/ml | Activities (U/ml) [2, 5]: 0.332 U/ml | effect of heparinase treatment on the daily oscillation of Aβ42 phagocytosis (in words) ([1]; triplicate): loss of daily oscillation | Hedges' g, phagocytosis vs Aβ42-alone at PS20 (nadir, CT8) [1, 3]: 0.1328 | Hedges' g, phagocytosis vs Aβ42-alone at PS32 (zenith, CT20) [1, 3]: 0.635 | Hedges' g, phagocytosis PS20 vs PS32 within the same treatment [1, 3]: 0.1017

Continued, in another order:

Activities (U/ml) [2, 4]: 1.048 U/ml
B1: Heparinase II: Recombinant Flavobacterial heparin lyase II; cleaves in both high- and low-sulfated positions (protein, UniProt C6XZB6 26-772, looked up)
Heparin and heparin-sulfate …: QTKADVVWKDVDGVSMPIPPKTHPRLYLREQQVPDLKNRMNDPKLKKVWADMIKMQEDWKPADIPEVKDFRFYFNQKGLTVRVELMALNYLMTKDPKVGREAITSIIDTLETATFKPAGDISRGIGLFMVTGAIVYDWCYDQLKPEEKTRFVKAFVRLAKMLECGYPPVKDKSIVGHASEWMIMRDLLSVGIAIYDEFPEMYNLAAGRFFKEHLVARNWFYPSHNYHQGMSYLNVRFTNDLFALWILDRMGAGNVFNPGQQFILYDAIYKRRPDGQILAGGDVDYSRKKPKYYTMPALLAGSYYKDEYLNYEFLKDPNVEPHCKLFEFLWRDTQLGSRKPDDLPLSRYSGSPFGWMIARTGWGPESVIAEMKVNEYSFLNHQHQDAGAFQIYYKGPLAIDAGSYTGSSGGYNSPHNKNFFKRTIAHNSLLIYDPKETFSSSGYGGSDHTDFAANDGGQRLPGKGWIAPRDLKEMLAGDFRTGKILAQGFGPDNQTPDYTYLKGDITAAYSAKVKEVKRSFLFLNLKDAKVPAAMIVFDKVVASNPDFKKFWLLHSIEQPEIKGNQITIKRTKNGDSGMLVNTALLPDAANSNITSIGGKGKDFWVFGTNYTNDPKPGTDEALERGEWRVEITPKKAAAEDYYLNVIQIADNTQQKLHEVKRIDGDKVVGVQLADRIVTFSKTSETVDRPFGFSVVGKGTFKFVMTDLLPGTWQVLKDGKILYPALSAKGDDGALYFEGTEGTYRFLR

Activities (U/ml) [2, 4]: 20.212 U/ml | Activities (U/ml) [2, 5]: 5.305 U/ml
B2: Heparinase III: Recombinant Flavobacterial heparin lyase III; cleaves in low or unsulfated regions of HSPGs (protein, UniProt Q59289 25-659, looked up)
Heparin-sulfate lyase: QSSSITRKDFDHINLEYSGLEKVNKAVAAGNYDDAAKALLAYYREKSKAREPDFSNAEKPADIRQPIDKVTREMADKALVHQFQPHKGYGYFDYGKDINWQMWPVKDNEVRWQLHRVKWWQAMALVYHATGDEKYAREWVYQYSDWARKNPLGLSQDNDKFVWRPLEVSDRVQSLPPTFSLFVNSPAFTPAFLMEFLNSYHQQADYLSTHYAEQGNHRLFEAQRNLFAGVSFPEFKDSPRWRQTGISVLNTEIKKQVYADGMQFELSPIYHVAAIDIFLKAYGSAKRVNLEKEFPQSYVQTVENMIMALISISLPDYNTPMFGDSWITDKNFRMAQFASWARVFPANQAIKYFATDGKQGKAPNFLSKALSNAGFYTFRSGWDKNATVMVLKASPPGEFHAQPDNGTFELFIKGRNFTPDAGVFVYSGDEAIMKLRNWYRQTRIHSTLTLDNQNMVITKARQNKWETGNNLDVLTYTNPSYPNLDHQRSVLFINKKYFLVIDRAIGEATGNLGVHWQLKEDSNPVFDKTKNRVYTTYRDGNNLMIQSLNADRTSLNEEEGKVSYVYNKELKRPAFVFEKPKKNAGTQNFVSIVYPYDGQKAPEISIRENKGNDFEKGKLNLTLTINGKQQLVLVP
effect of heparinase treatment on the daily oscillation of Aβ42 phagocytosis (in words) ([1]; triplicate): oscillations in Aβ42 phagocytosis were also ablated | Hedges' g, phagocytosis vs Aβ42-alone at PS20 (nadir, CT8) [1, 3]: 0.5409 | Hedges' g, phagocytosis vs Aβ42-alone at PS32 (zenith, CT20) [1, 3]: 0.22 | Hedges' g, phagocytosis PS20 vs PS32 within the same treatment [1, 3]: 0.1663
